We go through one molecule from paper doi:10.1101/154823 (bioRxiv, 2017).

The target in this test is T1, GDF8 growth factor dimer (human, UniProt O14793 267-375, disulfide-linked dimer).
T1 sequence (looked up): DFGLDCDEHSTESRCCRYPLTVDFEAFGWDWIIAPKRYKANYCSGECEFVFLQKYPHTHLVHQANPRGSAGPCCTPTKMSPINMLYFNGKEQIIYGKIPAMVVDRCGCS
In words: HDX-MS.

B1: N-prodomain fragment of GDF8 (N-terminal 15 kDa TLD-cleaved prodomain fragment) (domain or fragment, human, UniProt O14793 24-98, looked up)
chain: NENSEQKENVEKEGLCNACTWRQNTKSSRIEAIKIQILSKLRLETAPNISKDVIRQLLPKAPPLRELIDQYDVQR
modifications: predicted N-linked glycan attachment site (printed as Asn-71 in the text, Asn48 in Figure 1A)
As to B1, the binding result is listed as “binds”.
